Reference: the supplement of paper PMC10567573
± gives the standard deviation.

Test: protein stability index of a GFP-peptide fusion (GPS, HEK-293T) (PSI 1-6); higher = more stable
Conditions: c terminus: a fixed tail appended
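Also: 24-mer peptide tiles fused after GFP, lentivirally expressed, FACS-sorted into six equal bins by GFP/DsRed ratio, decoded by Illumina sequencing, PSI is the read-weighted mean bin number.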

Row | Sequence | protein stability index (treatment: DMSO) | protein stability index (treatment: MLN4924 1 uM, 8 h)
1 | LGAEESLGLLDDYLEVAKHFKPHG [ATF4] | 3.24 ± 0.33 | 3.56 ± 0.36
2 | MEEAAVASVVLPARELQEALPEAP [BCL2L13] | 5.27 ± 0.15 | 5.51 ± 0.069
3 | NARLQAMWGQSLLPPVSTSFTTGG [TNXB] | 2.51 ± 0.29 | 2.89 ± 0.33
4 | PRPGTGQSRSFRILAHLTGTEFMQ [PDLIM7] | 2.47 ± 0.046 | 2.83 ± 0.27
5 | DVNEQVMQVLGPEDLQSIIYKLEE [CEP70] | 3.7 ± 0.21 | 3.7 ± 0.24
6 | YGLDSVKKKCLEWLLNNLMTHQNV [GMCL1] | 3.09 ± 0.26 | 2.73 ± 0.21
7 | TPLIQQRARDSPEPGAGLGIGDMA [PSD2] | 4.55 ± 0.24 | 4.37 ± 0.12
8 | GRGNFPTLEITLKDIVQTVRSRLE [TENT5C] | 2.65 ± 0.36 | 2.31 ± 0.2
9 | PHTPQTPGQGGPASTPAQTAAGGQ [NR2F2] | 5.3 ± 0.18 | 5.27 ± 0.23
10 | ISSVGGEAMFCDFPKINHGILYDE [CFHR2] | 3.38 ± 0.26 | –
11 | SCLSSQSSALSQSGGGSTSAAGIE [SPACA3] | 4.78 ± 0.13 | 4.82 ± 0.063
12 | SSQDRMFETMAIEIEQLLARLTGV [GOSR1] | 2.52 ± 0.24 | 2.62 ± 0.44
13 | DQHRLYKQIKAGAYDFPSPEWDTV [CAMK2A] | 3.29 ± 0.23 | 3.3 ± 0.24
14 | QDLVELYLTNCEKLSAKSLQTLRS [ZER1] | 2.1 ± 0.2 | 2.54 ± 0.21
15 | ASQFLASASSSTTCCESTQRSVSD [IRX6] | 5.09 ± 0.22 | 5.09 ± 0.22
16 | HGPDLYPKFKKWCDDYFFIAHRGE [CPOX] | 2 ± 0.15 | 2.1 ± 0.27
17 | LIANRSYKVSAASSFFFSGVFVGV [SLC22A15] | 2.69 ± 0.8 | 2.49 ± 0.64
18 | VVYSCVEGKMYTARKGKGAFCNGQ [IMPA1] | 2.33 ± 0.27 | 2.36 ± 0.13

Row | Sequence | protein stability index (treatment: DMSO) | protein stability index (treatment: MLN4924 1 uM, 8 h)
19 | DGTAENGIHPLSSSEVDELIHKAD [PALM] | 5.38 ± 0.2 | 5.35 ± 0.42
20 | VGFIMAGTPMALIVISYIHVAAAV [OR3A1] | 3.27 ± 0.35 | 2.87 ± 0.32
21 | GATGECQNFLDPGYPLPKLDMNFS [ZNF449] | 3.47 ± 0.2 | 3.67 ± 0.29
22 | RSSLLACILLSALGYLLLGAATNV [MFSD9] | 2.9 ± 0.34 | 3.44 ± 0.26
23 | EESKEPKEEKQRRRCKPKKPTRRD [GNAS] | 5.42 ± 0.11 | 5.44 ± 0.16
24 | HQLLGLFPSTSYNARLQAMWGQSL [TNXB] | 2.11 ± 0.35 | 2.08 ± 0.23
25 | ARSAASYMLFDPKDSVMQQNLVYY [P3H4] | 2.28 ± 0.48 | 2.08 ± 0.45
26 | KGNLLRHIKLHSGEKPFKCHLCNY [IKZF1] | 2.37 ± 0.38 | 2.4 ± 0.23
27 | LVTGGELFEDIVAREYYSEADASH [CAMK2A] | 3.92 ± 0.37 | 3.91 ± 0.17
28 | WTQATGLGCALLAAHAVVLCALPV [SOAT2] | 3.18 ± 0.35 | 2.97 ± 0.095
29 | LTVAKCWDPSPRGCFTLPRSEPIR [DVL3] | 2.43 ± 0.37 | 2.62 ± 0.23
30 | YSSEMKTEDELRVRHLEEENRGIV [AUH] | 4.78 ± 1 | 5.35 ± 0.86
31 | PPETTETPKCSSPRGQEGSRQDKP [YJU2B] | 5.5 ± 0.36 | 5.54 ± 0.26
32 | ILIVDWDVHHGNGTQHMFEDDPSV [HDAC6] | 2.18 ± 0.23 | 2.39 ± 0.21
33 | NHLNPEVKKSCWTEEEDRIICEAH [MYBL2] | 4.72 ± 0.1 | 4.81 ± 0.2
34 | RYGRRTAIILSSCLLGLGSLVLIL [SLC2A12] | 5.23 ± 0.14 | 5.1 ± 0.14
35 | SFINFFTSVLATLVVFAVLGFKAN [SLC6A17] | 4.11 ± 0.85 | 3.06 ± 0.36
36 | LTQLHRLSLESSPDAPDHTSETSH [PLEKHN1] | 5.23 ± 0.32 | 5.22 ± 0.21
